Measurements from US20070105152.
Like-named read-outs stand apart in the source and are kept apart here.

T1: AcGG(AcK)APRKQ
T1 sequence: GGKAPRKQ

T2: AcGG(AcK)APRK
T2 sequence: GGKAPRK

T3: AcGG(AcK)APR
T3 sequence: GGKAPR

T4: AcGG(AcK)AP
T4 sequence: GGKAP

T5: AcKSTGG(AcK)AP
T5 sequence: KSTGGKAP

T6: AcSTGG(AcK)APR
T6 sequence: STGGKAPR

T7: AcSTGG(AcK)AP
T7 sequence: STGGKAP

T8: AcTGG(AcK)APRK
T8 sequence: TGGKAPRK

T9: AcTGG(AcK)APR
T9 sequence: TGGKAPR

T10: AcTGG(AcK)AP
T10 sequence: TGGKAP

T11: AcGG(AcK)AP
T11 chain: GGKAP

T12: AcGG(AcK)APR
T12 chain: GGKAPR

T13: AcGG(AcK)APRK
T13 chain: GGKAPRK

T14: AcGG(AcK)APRKQ
T14 chain: GGKAPRKQ

T15: AcKSTGG(AcK)AP
T15 chain: KSTGGKAP

T16: AcSTGG(AcK)APR
T16 chain: STGGKAPR

T17: AcSTGG(AcK)AP
T17 chain: STGGKAP

T18: AcTGG(AcK)APRK
T18 chain: TGGKAPRK

T19: AcTGG(AcK)APR
T19 chain: TGGKAPR

T20: AcTGG(AcK)AP
T20 chain: TGGKAP


Key:
AcGG(AcK)APRKQ [1] = system: T1, AcGG(AcK)APRKQ
AcGG(AcK)APRK [2] = system: T2, AcGG(AcK)APRK
AcGG(AcK)APR [3] = system: T3, AcGG(AcK)APR
AcGG(AcK)AP [4] = system: T4, AcGG(AcK)AP
AcKSTGG(AcK)AP [5] = system: T5, AcKSTGG(AcK)AP
AcSTGG(AcK)APR [6] = system: T6, AcSTGG(AcK)APR
AcSTGG(AcK)AP [7] = system: T7, AcSTGG(AcK)AP
AcTGG(AcK)APRK [8] = system: T8, AcTGG(AcK)APRK
AcTGG(AcK)APR [9] = system: T9, AcTGG(AcK)APR
AcTGG(AcK)AP [10] = system: T10, AcTGG(AcK)AP
AcGG(AcK)AP [11] = target: T11, AcGG(AcK)AP
AcGG(AcK)APR [12] = target: T12, AcGG(AcK)APR
AcGG(AcK)APRK [13] = target: T13, AcGG(AcK)APRK
AcGG(AcK)APRKQ [14] = target: T14, AcGG(AcK)APRKQ
AcKSTGG(AcK)AP [15] = target: T15, AcKSTGG(AcK)AP
AcSTGG(AcK)APR [16] = target: T16, AcSTGG(AcK)APR
AcSTGG(AcK)AP [17] = target: T17, AcSTGG(AcK)AP
AcTGG(AcK)APRK [18] = target: T18, AcTGG(AcK)APRK
AcTGG(AcK)APR [19] = target: T19, AcTGG(AcK)APR
AcTGG(AcK)AP [20] = target: T20, AcTGG(AcK)AP

Molecule | Relative kcat/Km (relative to AcTGG(AcK)APRK = 1) (AcGG(AcK)APRKQ [1]) | Relative kcat/Km (relative to AcTGG(AcK)APRK = 1) (AcGG(AcK)APRK [2]) | Relative kcat/Km (relative to AcTGG(AcK)APRK = 1) (AcGG(AcK)APR [3]) | Relative kcat/Km (relative to AcTGG(AcK)APRK = 1) (AcGG(AcK)AP [4]) | Relative kcat/Km (relative to AcTGG(AcK)APRK = 1) (AcKSTGG(AcK)AP [5]) | Relative kcat/Km (relative to AcTGG(AcK)APRK = 1) (AcSTGG(AcK)APR [6]) | Relative kcat/Km (relative to AcTGG(AcK)APRK = 1) (AcSTGG(AcK)AP [7]) | Relative kcat/Km (relative to AcTGG(AcK)APRK = 1) (AcTGG(AcK)APRK [8]) | Relative kcat/Km (relative to AcTGG(AcK)APRK = 1) (AcTGG(AcK)APR [9]) | Relative kcat/Km (relative to AcTGG(AcK)APRK = 1) (AcTGG(AcK)AP [10]) | Relative kcat/Km (relative to AcTGG(AcK)APRK = 1) (AcGG(AcK)AP [11]) | Relative kcat/Km (relative to AcTGG(AcK)APRK = 1) (AcGG(AcK)APR [12]) | Relative kcat/Km (relative to AcTGG(AcK)APRK = 1) (AcGG(AcK)APRK [13]) | Relative kcat/Km (relative to AcTGG(AcK)APRK = 1) (AcGG(AcK)APRKQ [14]) | Relative kcat/Km (relative to AcTGG(AcK)APRK = 1) (AcKSTGG(AcK)AP [15]) | Relative kcat/Km (relative to AcTGG(AcK)APRK = 1) (AcSTGG(AcK)APR [16]) | Relative kcat/Km (relative to AcTGG(AcK)APRK = 1) (AcSTGG(AcK)AP [17]) | Relative kcat/Km (relative to AcTGG(AcK)APRK = 1) (AcTGG(AcK)APRK [18]) | Relative kcat/Km (relative to AcTGG(AcK)APRK = 1) (AcTGG(AcK)APR [19]) | Relative kcat/Km (relative to AcTGG(AcK)APRK = 1) (AcTGG(AcK)AP [20])
Trypanosoma brucei Sir2 | 1.43 | 1.82 | 1.18 | 1.27 | 1.81 | 1.39 | 0.59 | 1 | 0.89 | 0.74 |  |  |  |  |  |  |  |  |  | 
yeast Sir2 | 2.09 | 2.33 | 2.53 | 1.51 | 2.12 | 1.6 | 1.83 | 1 | 1.72 | 1.62 |  |  |  |  |  |  |  |  |  | 
SIRT2 (protein) MAEPDPSHPLETQAGKVQEAQDSDSDSEGGAAGGEADMDFLRNLFSQTLSLGSQKERLLDELTLEGVARYMQSERCRRVICLVGAGISTSAGIPDFRSPSTGLYDNLEKYHLPYPEAIFEISYFKKHPEPFFALAKELYPGQFKPTICHYFMRLLKDKGLLLRCYTQNIDTLERIAGLEQEDLVEAHGTFYTSHCVSASCRHEYPLSWMKEKIFSEVTPKCEDCQSLVKPDIVFFGESLPARFFSCMQSDFLKVDLLLVMGTSLQVQPFASLISKAPLSTPRLLINKEKAGQSDPFLGMIMGLGGGMDFDSKKAYRDVAWLGECDQGCLALAELLGWKKELEDLVRREHASIDAQSGAGVPNPSTSASPKKSPPPAKDEARTTEREKPQ |  |  |  |  |  |  |  |  |  |  | 0.56 | 0.6 | 0.68 | 0.66 | 0.59 | 0.93 | 0.78 | 1 | 0.72 | 0.55
